Measurements reported in publication PMC10998858, “Structure and mechanisms of transport of human Asc1/CD98hc amino acid transporter” (Nature Communications, 2024).

Biological target: T1, human CD98hc (SLC3A2), heavy subunit of the Asc1/CD98hc heterodimer (human, UniProt P08195-2 1-529, N-glycosylation at residues 264, 280, 323 and 405; disulfide bridge from Cys 109 to Cys 154 of Asc1)
T1 construct: CD98hc (SLC3A2), human; residues 61-529 were modelled and the disulfide cysteine is numbered C109, which fits the 529-residue isoform (isoform f is named only for the HeLa construct); also called heavy chain; ancillary subunit; source: HEK293-6E, co-transfected with Asc1, purified as heterodimer in digitonin (Ni-NTA, size exclusion chromatography)
T1 sequence: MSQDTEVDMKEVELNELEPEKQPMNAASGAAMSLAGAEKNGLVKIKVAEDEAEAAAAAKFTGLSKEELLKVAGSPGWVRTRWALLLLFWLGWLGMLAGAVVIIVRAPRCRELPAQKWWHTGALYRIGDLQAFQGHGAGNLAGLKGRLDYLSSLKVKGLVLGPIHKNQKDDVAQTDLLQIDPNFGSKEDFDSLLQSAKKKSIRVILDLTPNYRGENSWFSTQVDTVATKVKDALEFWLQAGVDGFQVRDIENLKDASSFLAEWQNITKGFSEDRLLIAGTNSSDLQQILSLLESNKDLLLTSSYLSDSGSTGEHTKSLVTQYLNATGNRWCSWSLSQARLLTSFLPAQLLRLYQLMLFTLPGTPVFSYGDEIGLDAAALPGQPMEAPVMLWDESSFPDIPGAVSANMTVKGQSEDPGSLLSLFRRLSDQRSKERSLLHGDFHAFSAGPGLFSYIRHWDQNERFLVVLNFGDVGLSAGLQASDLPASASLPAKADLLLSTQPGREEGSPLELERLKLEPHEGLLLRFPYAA
Test: cryo-EM structure; heterodimer co-expressed in HEK293-6E, solubilised in 1% digitonin, purified by Ni-NTA and Superdex200 in 20 mM Tris-HCl pH 8.0, 150 mM NaCl, 0.1% digitonin; 1.2-1.5 mg/ml, 10 mM D-Ser added before vitrification (no ligand density found)
Conditions: both partners purified

binding result: binds
B1: human Asc1 (SLC7A10), light subunit of the Asc1/CD98hc heterodimer (natural protein)
chain: MAGHTQQPSGRGNPRPAPSPSPVPGTVPGASERVALKKEIGLLSACTIIIGNIIGSGIFISPKGVLEHSGSVGLALFVWVLGGGVTALGSLCYAELGVAIPKSGGDYAYVTEIFGGLAGFLLLWSAVLIMYPTSLAVISMTFSNYVLQPVFPNCIPPTTASRVLSMACLMLLTWVNSSSVRWATRIQDMFTGGKLLALSLIIGVGLLQIFQGHFEELRPSNAFAFWMTPSVGHLALAFLQGSFAFSGWNFLNYVTEEMVDARKNLPRAIFISIPLVTFVYTFTNIAYFTAMSPQELLSSNAVAVTFGEKLLGYFSWVMPVSVALSTFGGINGYLFTYSRLCFSGAREGHLPSLLAMIHVRHCTPIPALLVCCGATAVIMLVGDTYTLINYVSFINYLCYGVTILGLLLLRWRRPALHRPIKVNLLIPVAYLVFWAFLLVFSFISEPMVCGVGVIIILTGVPIFFLGVFWRSKPKCVHRLTESMTHWGQELCFVVYPQDAPEEEENGPCPPSLLPATDKPSKPQ
modifications: disulfide bridge from Cys 154 to Cys 109 of CD98hc
notes: Asc1 (SLC7A10), human; residues 41-489 were modelled in the cryoEM map; The final construct has no GFP; a version with C-terminal eGFP was used only in preliminary trials; also called hAsc1; light chain; source: HEK293-6E, co-transfected with CD98hc, purified as heterodimer in digitonin (Ni-NTA, size exclusion chromatography); not shown: 6xHis, C-terminal, kept
